Results on four substances are retold here after paper PMC8234031, “Modular Assembly of Phosphite Dehydrogenase and Phenylacetone Monooxygenase for Tuning Cofactor Regeneration” (Biomolecules, 2021).

The stoichiometry N is a count of units in the complex or per binding partner.

Experiment [1] deals with PTDHA (phosphite dehydrogenase with a C-terminal RIAD tag). In words: SEC; each purified tagged protein alone, in the absence of any other tagged protein; Superdex 200 (10/300), 50 mM Tris–HCl with 150 mM NaCl, pH 7.5.
In experiment [2] the target is PTDHI (phosphite dehydrogenase with a C-terminal RIDD tag).
Experiment [3] addresses PTDHA2 (phosphite dehydrogenase with a C-terminal RIAD–RIAD tag). In words: SEC; each purified tagged protein alone, in the absence of any other tagged protein; Superdex 200 (10/300), 50 mM Tris–HCl with 150 mM NaCl, pH 7.5. (SEC sorts molecules by how far they enter the pores of the column.)

“PTDHA (phosphite dehydrogenase with a C-terminal RIAD tag) (enzyme)” showed a stoichiometry N in experiment [1] of 2. As for “PAMOA2 (phenylacetone monooxygenase with a C-terminal RIAD–RIAD tag) (enzyme)”, in experiment [2], the conversion of 5.0 mM bicyclo[3.2.0]hept-2-en-6-one after 24 h by the mixture of the two tagged enzymes came to 78%.

“PAMOA (phenylacetone monooxygenase with a C-terminal RIAD tag) (enzyme)”: the conversion of 5.0 mM bicyclo[3.2.0]hept-2-en-6-one after 24 h by the mixture of the two tagged enzymes in experiment [2] was 78%. In turn, “PTDHA2 (phosphite dehydrogenase with a C-terminal RIAD–RIAD tag) (enzyme)” displayed a stoichiometry N in experiment [3] of 2.
